According to the supplement of paper PMC9170038:

Test system: MS2 coat protein
Test: apparent KD of MS2 coat protein; higher = weaker reporter binding
Conditions: Eterna round: R107
In short: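 Apparent KD stands for the median, per design, of fits to normalised cluster binding curves. The curves came from titrating on-chip-transcribed RNA switches on Illumina sequencing clusters with SNAP-549-labelled MS2 coat protein, twofold from 0.7 or 1.5 nM to 3 µM. Buffer was 100 mM Tris-HCl pH 7.5, 80 mM KCl, 4 mM MgCl2, without or with constant ligand.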

[1] = input ligand: theophylline 20 uM
[2] = input ligand: tryptophan 2.4 mM
[3] = input ligand: theophylline 2 mM

Sequence	apparent KD of MS2 coat protein (input ligand: arginine 13.2 mM) [nM]	apparent KD of MS2 coat protein [1] [nM]	apparent KD of MS2 coat protein [2] [nM]	apparent KD of MS2 coat protein (input ligand: none) [nM]	apparent KD of MS2 coat protein [3] [nM]
GAUGAACUAUUUGAUACCAGACUACAUGAGGAUCACCCAUGUGCGCGUCGUCCUCUGCCAGUCCCUUGGCAGCAAAUAGUUUAUC [XTheo B #9]	69.8	140	85.2	–	–
GCACAAGAUGGAAGGAGCGCUGGUAAAGGUCACAUGAGGAUCACCCAUGUGCUCCUUGCCGAGCAGGUAGGUCGCCAUCUUGUGC [SSAB NP+V+V2 #3]	14.1	16.4	11.7	11.7	13.3
GCACGGUAGUCGGCCGCCACUGAAACAUGUGUCUACAUGAGGAUCACCCAUGUGGGUGUGUUUUGUAGGACCGGGACAAGACCCG [#11 Same State - Tryptophan B]	16.8	28.1	17.2	19	18
GCAUCCUAGUCGGCCGCCACUGCAGGAUCGGCGGCAGAUCCUCAACAUGAGGAUCACCCAUGUAGCAGGACCGGGACUAGGAUGC [(Trp1)-(TM)''-(TM)'-(Ms2)-(Trp2)_Design2]	36.3	80.3	99.8	91.6	48.1
GCCUAGCAUCGAAGGAGCGGGCAUUACGCGCGAAAGCGCGAUGCACGAGGAUCACCCGUGUCCCAGGUAGGUCGCGAUGCUAGGC [SSAB Alternative Aptamer #4 V+V2]	153	368	343	508	527
GCGAUGGAGCGAAGGAGCGUGCUAGUACAUGAGGAUCACCCAUGUGAGUCGCAUCGCUAAGCACAGGUAGGUCGCGCUCCAUCGC [EAB NP+V+V2 #9]	44.6	122	87.6	94.2	145
GCGAUGGAGCGAAGGAGCGUGCUGGUACAUGAGGAUCACCCAUGUGAACCGCAGCGCUAAGCACAGGUAGGUCGCGCUCCAUCGC [EAB NP+V+V2 #14]	102	28.4	41.9	28.8	23
GCGAUGGAGCGAAGGAGCGUGCUGGUACAUGAGGAUCACCCAUGUGAGUCGCAUCGCUAAGCACAGGUAGGUCGCGCUCCAUCGC [EAB NP+V+V2 #10]	48.6	85	66.5	58.4	83
GCGCGGCGAGUGCGGCGUGUUCCGCUCCGUCGAGGACCGGUACGGCCGCCACUCGACAUGAGGAUCACCCAUGUCGCCGCGCGCG [Exclusion - Tryptophan A Attempt #3]	13.9	22.9	13.5	13.3	48.3
GCGGUCCACUUGGAUACCAGCAGAUUAAUAAACAUGAGGAUCACCCAUGUAAGCGCCUUGUGCCCUUGGCAGCCAGGGUGGUCAG [theeternabot_sameState_MS2_Theo_B_50]	55.5	136	88.4	–	–
GCUAGCCGAAAGGCUAGCAAGGCUACAGAAGGAGCGUGCGAAAGCACAGGUAGGUCGCUGAGCUUGAGGAUCACCCAAGUUGCCU [SSAA - Alter Amptam #1 V+V2]	26.2	57.2	64	66.7	48.6
GCUAGGUCAUCGGCCGCCACUAACGACGGUUCGAACAUGAGGAUCACCCAUGUGCCACAUGCGCAUAGGACCGGGAUGACCUAGC [SSTB NP+V+V2 #6]	35.7	24.3	11.7	19.5	21.2
GCUAGUGGCAGAAGGAGCGACAUUUAUAGUGGUCGAUACAUGAGGAUCACCCAUGUACUAUGUCAGGUAGGUCGCUGCCACUAGC [EAB NP+V+V2 #5]	31.6	44.8	32.5	35.1	34
GCUCACAUGAGGAUCACCCAUGUACGUCCGCGAGGACCGGUACGGCCGCCACUCGUGUUAGCUUCAAACUUGUUAGUGUUAAACA [Atleerge]	31.3	53.4	–	–	68.4
GGACUAACCAGAAGGAGCGGCACAAGCAGAAACUGCAAUCCUCCGCACGAGGAUCACCCGUGUCAGGUAGGUCGCUGGUUAGUCG [ArgBX 28]	49.2	74.6	63.7	56.8	80.4
GGACUAACCAGAAGGAGCGGCACGCAGAAACUGCAAAAUCCUCCGCACGAGGAUCACCCGUGUCAGGUAGGUCGCUGGUUAGUCG [ArgBX 28]	36.7	39.8	33.8	32.2	37.8
GGAUAGAUAGGAGAUACCAGAUACAUCAACAUGAGGAUCACCCAUGUGUCUGCACUAAGUGUCCCUUGGCAGCUCGGAGAUCUGA [#16 Same State - Theophylline B]	24	33.7	32.4	–	–
GGAUAGGACACGGCCGCCACUAGCUAGGAUACUAGCAACAUUUCCUCGCUUGAGGAUCACCCAAGUAGGACCGGGUGUCCUAUCG	302	446	482	560	476
GGAUAGGACACGGCCGCCACUGCGCUAGGAUACUAGAACAUUUCCUCACAUGAGGAUCACCCAUGUAGGACCGGGUGUCCUAUCG	34	76.7	–	–	60.4

Sequence	apparent KD of MS2 coat protein (input ligand: arginine 13.2 mM) [nM]	apparent KD of MS2 coat protein [1] [nM]	apparent KD of MS2 coat protein [2] [nM]	apparent KD of MS2 coat protein (input ligand: none) [nM]	apparent KD of MS2 coat protein [3] [nM]
GGAUAGGACAGAAGGAGCGACAUGGCAGAAACUGCAAUCCUCCUACACGAGGAUCACCCGUGUCAGGUAGGUCGCUGUCCUAUCG [ArgXB 12 #Zipper #MS2Left #StaticStem #Blueprint]	25.6	34.8	27.4	24.7	36.9
GGAUUCGGCACGGCCGCCACUGCGGUGGUGUGACAUGAGGAUCACCCAUGUUGUCAUGCGGCCCUUAGGACCGGGUGGCGUUUCC [#1 Exclusion - Tryptophan B Attempt #21 (HarryS)]	47.1	76.2	–	–	73.3
GGCAAAAGGUCGGCCGCCACUGUAGGAUGUGUUCUUUCACAUGAGGAUCACCCAUGUUGUUAUUAUAGGACCGGGAUUUUAGGAC [39MS split4]	20.6	31.7	–	–	23.4
GGCCAAAAGGCGGCCGCCACUCAAGAGUAGCAUGGAAAGACAUGAGGAUCACCCAUGUAAAGAAAGAGGACCGGGCCAAAAGGCC	28.4	141	193	117	262
GGCGCGAGCCAACAUGAGGAUCACCCAUGUCGAGGACCGGUACGGCCGCCACUCGAACGAGUGGCGCGCGCGCGCGCGCGCGCGC [Vaa]	12.2	17.9	28.6	15.9	19
GGCGCUGCGUCGGCCGCCACUAGCGGGUAAUGGGUGUACAUGAGGAUCACCCAUGUAAUAUGGCCUAGGACCGGGACGUGGCGCC [Moose]	259	415	620	427	465
GGGAAAGAAUGUGAUACCAGAGAACCGGUCUCCAUCAAUAUACAUGAGGAUCACCCAUGUCUCCCUUGGCAGCACCAUCAUCAAA [Exclusion Theophylline B GF 27]	21	28.3	22	–	–
GGGAGGUAGGCGGCCGCCACUGAUUUUCAUAUAUAUAUAACAUGAGGAUCACCCAUGUAGAUAUACAGGACCGGGCCUAUUUUUU [aaaF]	30.2	21.9	14.2	18.8	18.2
GGGCAAGAGGGAAGGAGCGUCGGCUGAGUAACAUGAGGAUCACCCAUGUAGCACAUAGUGUGGCAGGUAGGUCGCCCUCUGCCCU [SS-ArgB7]	17.5	16.9	13.2	11.3	13.7
GGGCAAGAGGGAAGGAGCGUUAGCUGAGUCACAUGAGGAUCACCCAUGUCGCACAUAGUAUGACAGGUAGGUCGCCCUCUACCCU [SS-ArgB14]	17.7	28.7	16.8	15.6	18.2
GGGCCCGGCCGAAAGGCCGGGCCCGCUGAAGGAGCGGGAAAUAACCCAGGUAGGUCGCAGAGAUCCACAUGAGGAUCACCCAUGU [#26 Exclusion - Arginine A]	38.7	64.1	44.4	26.5	68.1
GGGCUCGGAGUGCGGCGUGUUCCGCUCCGUCGAGGACCGGUACGGCCGCCACUCGACAUGAGGAUCACCCAUGUCCGAGCGCGCG [#1 Exclusion - Tryptophan A Attempt #6 (HarryS)]	19.2	41.7	9.64	21.2	51.4
GGGUCGGGCGCGGCCGCCACUGCGGUGAUGUGACAUGAGGAUCACCCAUGUUGUCAUGUGGCACAUAGGACCGGGCGCCCGGCCC [#1 Exclusion - Tryptophan B Attempt #8 (HarryS)]	34.7	46.8	29.1	29.1	34.7
GGUACAUGAGGAUCACCCAUGUAUUAGUGCCGAGGACCGGUACGGCCGCCACUCGCUUCACAUGAGGAUCACCCAUGUGUCACAG [SSTA DOUBLE!!! :-D #13]	22.4	38.4	–	–	39.7
GGUAGCAGGACUGAUACCAGUCCAGCGAAUCAUACGACGCAACAUGAGGAUCACCCAUGUGACCCUUGGCAGCAGACUGCUACCG [Same State Theophylline B GF 28]	29.4	24.8	26.7	–	–
GGUGGCGGGACUGAUACCAGCCACCACCGAUAGACCACAUGAGGAUCACCCAUGUUGGGUGGCCCUUGGCAGCAGUCUUGCGGCG [#1 Same State - Theophylline B Attempt #15 (HarryS)]	85.5	491	1290	527	81.5
GGUUCAUCGUCGGCCGCCACUCACAUGAGGUGGAGCUGUAAACAUGAGGAUCACCCAUGUUGUUAGAGGACCGGGACGUGACGGC [theeternabot_exclusion_MS2_Trp_B_6]	25.5	43.4	–	–	42.1
GUAGCGACGACGGCCGCCACUCACAGGUGAGGGUAGACCAACCUUCACAUGAGGAUCACCCAUGUGAGGACCGGGUUGUCGCUAC [#12 Exclusion Tryptophan B]	57.5	109	168	79	81.4
